Numbering of substitutions follows the chain as printed.
B1: v23660 (bispecific antibody, human IgG1, kappa, L234A L235A)
heavy 1: QVQLKESGPGLVAPSQSLSITCTVSGFSLTSYAISWVRQPPGKGLEWLGVIWPGGGTNYNSALKSRLSISKDNSKSQVFLKMNSLQTDDTARYYCARGTGTWYFDVWGAGTTVTVSSASTKGPSVFPLAPSSKSTSGGTAALGCLVKDYFPEPVTVSWNSGALTSGVHTFPAVLQSSGLYSLSSVVTVPSSSLGTQTYICNVNHKPSNTKVDKKVEPKSCDKTHTCPPCPAPEAAGGPSVFLFPPKPKDTLMISRTPEVTCVVVSVSHEDPEVKFNWYVDGVEVHNAKTKPREEQYNSTYRVVSVLTVLHQDWLNGKEYKCKVSNKALPAPIEKTISKAKGQPREPQVYVYPPSRDELTKNQVSLTCLVKGFYPSDIAVEWESNGQPENNYKTTPPVLDSDGSFALVSKLTVDKSRWQQGNVFSCSVMHEALHNHYTQKSLSLSPGGGGGDIVMTQTPASVEAAVGGTVTIKCQASQSIYSSLAWYQQKPGQSPKLLIYDASHLASGVPSRFSGSRYGTEFTLTISGVQCDDAATYYCQGGWYSSAATYVPNTFGGGTEVVVKGGGGSGGGGSGGGGSQEQLVESGGGLVQPEGSLTLTCKASGFTISNNYYMCWVRQAPGKGLEWIACIYGGISGRTYYASWAKGRFTISKTSSTTVTLQMTSLTAADTATYFCVRGYVGTSNLWGPGTLVTVSS
heavy 2: QVQLKESGPGLVAPSQSLSITCTVSGFSLTSYAISWVRQPPGKGLEWLGVIWPGGGTNYNSALKSRLSISKDNSKSQVFLKMNSLQTDDTARYYCARGTGTWYFDVWGAGTTVTVSSASTKGPSVFPLAPSSKSTSGGTAALGCLVKDYFPEPVTVSWNSGALTSGVHTFPAVLQSSGLYSLSSVVTVPSSSLGTQTYICNVNHKPSNTKVDKKVEPKSCDKTHTCPPCPAPEAAGGPSVFLFPPKPKDTLMISRTPEVTCVVVSVSHEDPEVKFNWYVDGVEVHNAKTKPREEQYNSTYRVVSVLTVLHQDWLNGKEYKCKVSNKALPAPIEKTISKAKGQPREPQVYVLPPSRDELTKNQVSLLCLVKGFYPSDIAVEWESNGQPENNYLTWPPVLDSDGSFFLYSKLTVDKSRWQQGNVFSCSVMHEALHNHYTQKSLSLSPG
light: DIQMTQTTSSLSASLGDRVTISCSASQGISNYLNWYQQKPDGTVKLLIYYTSSLHSGVPSRFSGSGSGTDYSLTISNLEPEDIATYYCQQYSDLPWTFGGGTKLEIKRTVAAPSVFIFPPSDEQLKSGTASVVCLLNNFYPREAKVQWKVDNALQSGNSQESVTEQDSKDSTYSLSSTLTLSKADYEKHKVYACEVTHQGLSSPVTKSFNRGEC
notes: also called 6B3 x 8K22 (VLVH) 2x1
B2: v23651 (bispecific antibody, human IgG1, kappa, L234A L235A)
heavy 1: QVQLKESGPGLVAPSQSLSITCTVSGFSLTTYAISWVRQPPGKGLEWLGIIWPGGGTNYNSALKSRLSISKDNSRSQVFLKMNSLQTDDTARYYCARGAGTWYFDVWGAGTTVTVSSASTKGPSVFPLAPSSKSTSGGTAALGCLVKDYFPEPVTVSWNSGALTSGVHTFPAVLQSSGLYSLSSVVTVPSSSLGTQTYICNVNHKPSNTKVDKKVEPKSCDKTHTCPPCPAPEAAGGPSVFLFPPKPKDTLMISRTPEVTCVVVSVSHEDPEVKFNWYVDGVEVHNAKTKPREEQYNSTYRVVSVLTVLHQDWLNGKEYKCKVSNKALPAPIEKTISKAKGQPREPQVYVYPPSRDELTKNQVSLTCLVKGFYPSDIAVEWESNGQPENNYKTTPPVLDSDGSFALVSKLTVDKSRWQQGNVFSCSVMHEALHNHYTQKSLSLSPGGGGGQVQLVQSGAEVVKPGASVKISCKASGYTFTGYFMNWVKQSPGQSLEWIGRIHPYDGDTFYNQKFQGKATLTVDKSSNTAHMELLSLTSEDFAVYYCTRYDGSRAMDYWGQGTTVTVSSGGGGSGGGGSGGGGSDIVLTQSPLSLAVSLGQPAIISCKASQSVSFAGTSLMHWYHQKPGQQPRLLIYRASNLEAGVPDRFSGSGSKTDFTLTISPVEAEDAATYYCQQSREYPYTFGGGTKLEIK
heavy 2: B1 heavy 2 with S31T, V50I, K75R, T99A
light: B1 light with T7S, L15V, D93K, L94F
notes: also called 1C8 x Mirvetuximab (scFv) 2x1
B3: v23658 (bispecific antibody, human IgG1, kappa, L234A L235A)
heavy 1: B1 heavy 1 with S35N, I51L, T99S
heavy 2: B1 heavy 2 with S35N, I51L, T99S
light: B1 light with I21F, S56L, D93K
notes: also called 4E6 x 8K22 (VLVH) 2x1
B4: v23656 (bispecific antibody, human IgG1, kappa, L234A L235A)
heavy 1: B1 heavy 1 with S31T, V50I, K75R, T99A
heavy 2: B1 heavy 2 with S31T, V50I, K75R, T99A
light: B1 light with T7S, L15V, D93K, L94F
notes: Two 4-1BB Fabs, one FRα scFv at the C-terminus of one heavy chain; also called 1C8 x 8K22 (VLVH) 2x1
B5: v23657 (bispecific antibody, human IgG1, kappa, L234A L235A)
heavy 1: QVQLKQSGPGLVQPSQSLSITCTVSGFSLTSYGVHWVRQSPGKGLEWLGVIWSGGSTDYNAAFISRLSISKDNSKSQVFFKMNSLQADDTAIYYCARNPLTATVMDYWGQGTSVTVSSASTKGPSVFPLAPSSKSTSGGTAALGCLVKDYFPEPVTVSWNSGALTSGVHTFPAVLQSSGLYSLSSVVTVPSSSLGTQTYICNVNHKPSNTKVDKKVEPKSCDKTHTCPPCPAPEAAGGPSVFLFPPKPKDTLMISRTPEVTCVVVSVSHEDPEVKFNWYVDGVEVHNAKTKPREEQYNSTYRVVSVLTVLHQDWLNGKEYKCKVSNKALPAPIEKTISKAKGQPREPQVYVYPPSRDELTKNQVSLTCLVKGFYPSDIAVEWESNGQPENNYKTTPPVLDSDGSFALVSKLTVDKSRWQQGNVFSCSVMHEALHNHYTQKSLSLSPGGGGGDIVMTQTPASVEAAVGGTVTIKCQASQSIYSSLAWYQQKPGQSPKLLIYDASHLASGVPSRFSGSRYGTEFTLTISGVQCDDAATYYCQGGWYSSAATYVPNTFGGGTEVVVKGGGGSGGGGSGGGGSQEQLVESGGGLVQPEGSLTLTCKASGFTISNNYYMCWVRQAPGKGLEWIACIYGGISGRTYYASWAKGRFTISKTSSTTVTLQMTSLTAADTATYFCVRGYVGTSNLWGPGTLVTVSS
heavy 2: QVQLKQSGPGLVQPSQSLSITCTVSGFSLTSYGVHWVRQSPGKGLEWLGVIWSGGSTDYNAAFISRLSISKDNSKSQVFFKMNSLQADDTAIYYCARNPLTATVMDYWGQGTSVTVSSASTKGPSVFPLAPSSKSTSGGTAALGCLVKDYFPEPVTVSWNSGALTSGVHTFPAVLQSSGLYSLSSVVTVPSSSLGTQTYICNVNHKPSNTKVDKKVEPKSCDKTHTCPPCPAPEAAGGPSVFLFPPKPKDTLMISRTPEVTCVVVSVSHEDPEVKFNWYVDGVEVHNAKTKPREEQYNSTYRVVSVLTVLHQDWLNGKEYKCKVSNKALPAPIEKTISKAKGQPREPQVYVLPPSRDELTKNQVSLLCLVKGFYPSDIAVEWESNGQPENNYLTWPPVLDSDGSFFLYSKLTVDKSRWQQGNVFSCSVMHEALHNHYTQKSLSLSPG
light: DIVMTQSQKFMSTSVGDRVSVTCKASQNVGTNVAWYQQKPGQSRTVLIYSASYRHSGVPDRFTGSGSGTDFTLTISNVQSEDLAEYFCQQYNSYPLTFGTGTKLELKRTVAAPSVFIFPPSDEQLKSGTASVVCLLNNFYPREAKVQWKVDNALQSGNSQESVTEQDSKDSTYSLSSTLTLSKADYEKHKVYACEVTHQGLSSPVTKSFNRGEC
notes: also called 2E8 x 8K22 (VLVH) 2x1
B6: v23659 (bispecific antibody, human IgG1, kappa, L234A L235A)
heavy 1: B5 heavy 1 with K5Q, Q6E, S15T, T30I
heavy 2: B5 heavy 2 with K5Q, Q6E, S15T, T30I
light: B5 light with R44P, T45K, V46A, H55D, F87L, T100A
notes: also called 5G8 x 8K22 (VLVH) 2x1
B7: v23662 (bispecific antibody, human IgG1, kappa, L234A L235A)
heavy 1: QVQLKQSGPGLVQPSQSLSITCTVSGFSLTSYGVHWVRQSPGKGLEWLGVIWSGGSTDYNAAFISRLSISKDNSKSQVFFKMNSLQADDTAIYYCARNPLTATVMDYWGQGTSVTVSSASTKGPSVFPLAPSSKSTSGGTAALGCLVKDYFPEPVTVSWNSGALTSGVHTFPAVLQSSGLYSLSSVVTVPSSSLGTQTYICNVNHKPSNTKVDKKVEPKSCDKTHTCPPCPAPEAAGGPSVFLFPPKPKDTLMISRTPEVTCVVVSVSHEDPEVKFNWYVDGVEVHNAKTKPREEQYNSTYRVVSVLTVLHQDWLNGKEYKCKVSNKALPAPIEKTISKAKGQPREPQVYVYPPSRDELTKNQVSLTCLVKGFYPSDIAVEWESNGQPENNYKTTPPVLDSDGSFALVSKLTVDKSRWQQGNVFSCSVMHEALHNHYTQKSLSLSPGGGGGDIVMTQTPSSVSAAVGGTVTIKCQASQTIGSSLAWYQQKPGQPPKLLIYRASTLASGVSSRFRGSGSGTEYTLTISDLECADAATYYCQWTDYGYIYIWAFGGGTEVVVKGGGGSGGGGSGGGGSQEQLVESGGGLVQPEGSLTLTCTASKFSFSSLYYMCWVRQAPGKGLEWIACVYGGSSGNTYYASWAKGRFTISKASSTTVTLQLTSLTAADTATYFCARFDVDGSGFNLWGPGTLVTVSS
heavy 2: B5 heavy 2
light: B5 light
notes: also called 2E8 x 1H06 (VLVH) 2x1

Molecular target: T1, full-length human FRα, on 293E cells (human, UniProt P15328 25-234)
T1 construct: also called folate receptor alpha; FOLR1
Experiment: flow cytometry, 293E cells expressing FRα
Protocol: Antibodies were diluted in 50 μl FB (PBS 2% FCS) 1:3 from stock in wells of a 96 V-well plate, and cells added on top. The cells were then left on ice for 30 minutes for the antibodies to bind. The cells were then washed twice in FB, and incubated in 50 μl FB containing 2 μg/ml goat anti-human Alexa647 antibody (Jackson Immunoresearch). The cells were then left on ice for a further 20 minutes, washed twice in FB, resuspended in 100 μl FB and analyzed on a BD Fortessa™ X20. The subsequent data files were analyzed using FlowJo™ and Prism 7 (GraphPad).

T1 sequence (P15328 25-234 limits assumed): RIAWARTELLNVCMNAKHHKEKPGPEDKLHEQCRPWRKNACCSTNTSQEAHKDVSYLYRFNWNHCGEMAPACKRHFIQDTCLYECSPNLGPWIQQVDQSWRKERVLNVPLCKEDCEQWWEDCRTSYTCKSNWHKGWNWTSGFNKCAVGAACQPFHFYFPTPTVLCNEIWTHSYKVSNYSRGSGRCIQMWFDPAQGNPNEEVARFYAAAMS

binding result	Binder
binds	B1
binds	B2
binds	B3
binds	B4
binds	B5
binds	B6

Molecular target: T2, purified human monomeric 4-1BB (human, UniProt Q07011 24-186)
T2 construct: the assay used the 4-1BB part released by Factor Xa with the Fc removed; also called h4-1BB; human 4-1BB
Experiment: SPR, Ab captured, monomeric 4-1BB injected
Protocol: The anti-human Fc surface was prepared on a CMS Series S sensorchip by standard amine coupling methods as described by the manufacturer (GE Healthcare). Briefly, immediately after EDC/NHS activation, a 25 μg/mL solution of anti-human Fc in 10 mM NaOAc pH 4.5 was injected at a flow rate of 10 μL/min for 420 s until approximately 2000 resonance units (RUs) were immobilized on all four flow cells. The remaining active groups were quenched by a 420 s injection of 1M ethanolamine at 10 μL/min.
Antibodies for analysis were captured onto the anti-Fc surface by injecting 5 μg/mL solutions at a flow rate of 10 μL/min for 60 s. Using single-cycle kinetics, five concentrations of a two-fold dilution series of 4-1BB starting at 40 nM (for both supernatant and purified antibody runs) with a blank buffer control were sequentially injected at 40 μL/min for 180 s with a 600 s dissociation phase, resulting in a set of sensorgrams with a buffer blank reference. Experiments were performed at a constant temperature of 25° C. The anti-human Fc surfaces were regenerated to prepare for the next injection cycle by one pulse of 10 mM Glycine/HCl pH 1.5 for 120 s at 40 μL/min. Blank-subtracted sensorgrams were analyzed using Biacore™ T200 Evaluation Software v3.0. The blank-subtracted sensorgrams were then fit to the 1:1 Langmuir binding model.
Variants purified by SEC were assessed for binding to human 4-1BB.

T2 sequence (Q07011 other isoform, or with tags, fused parts or gaps limits assumed): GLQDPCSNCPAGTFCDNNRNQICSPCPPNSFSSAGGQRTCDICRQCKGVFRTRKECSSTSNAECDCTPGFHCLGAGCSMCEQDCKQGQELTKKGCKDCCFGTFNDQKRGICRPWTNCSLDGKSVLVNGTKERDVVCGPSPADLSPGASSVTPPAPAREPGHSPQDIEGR

Kd	Binder
364 nM	B1
499 nM	B3
480 nM	B4
175 nM	B5
208 nM	B6
155 nM	B7

— US20230052369A1 (Zymeworks, published 2023)
